For 2 molecules, EC50, IC50 and Kd results are on record in paper PMC11457862.

In experiment [1] the target is human IL-2 (amino acids 1-133), soluble, P60568. As to the kind of experiment: yeast display titration. The following applies: chain shown with the change.
Experiment [2] has the same target. As to the kind of experiment: yeast display competition (IL-2 binding in the presence of soluble IL-2Rα competitor). The following applies: chain shown with the change; IL-2 5 nM; IC50 is the concentration of soluble IL-2Rα competitor (Dm27).
Experiment [3] has as its target T1, biotinylated human IL-2Rβ ectodomain (amino acids 1-214) (human) (UniProt P14784).
T1 sequence (chain, biotin on the biotin acceptor peptide (BirA ligase)): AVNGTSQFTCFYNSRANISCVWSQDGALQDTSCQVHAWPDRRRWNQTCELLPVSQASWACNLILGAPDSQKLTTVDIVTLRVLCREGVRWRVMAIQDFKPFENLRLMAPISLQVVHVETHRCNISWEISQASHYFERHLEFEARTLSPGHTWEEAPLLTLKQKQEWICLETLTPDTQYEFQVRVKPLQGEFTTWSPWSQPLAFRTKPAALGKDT
As to the kind of experiment: BLI; same set-up as a3; equilibrium titration, first-order fit (Supplemental Figure 4A-C, Supplemental Table 4). Background: In BLI a coated tip is dipped into the sample, and binding shifts an interference pattern.

Experiment [4] addresses biotinylated human IL-2Rα ectodomain (amino acids 1-217) (human). As to the kind of experiment: BLI; same set-up as a1; equilibrium titration of the response at the end of the association phase, first-order fit (Figures 2 and 3, Supplemental Table 1).
Experiment [5] concerns the target T1, biotinylated human IL-2Rβ ectodomain (amino acids 1-214) (human). The experiment is described as above.

B1: yeast-displayed 602 scFv T101S; F225S; G227D (protein)
chain 1: EVQLQESGPGLVAPSQSLSITCTVSGFSLTNYDISWIRQPPGKGLEWLGVIWTGGGTNYNSGFMSRLSITKDNSKSQVFLKMNSLQTDDTAIYYCVRQGRSPYWGQGTLVTVSA
chain 2: DIQVTQSPSSLSVSLGDRVTITCKASKDIYNRLAWYQQKPGNAPRLLISGATSLETGVPSRFSGSGSGKDYTLTITSLQTEDVATYYCQQSWDTPYTFGGGTKLEIK
B1 displayed an EC50 in experiment [1] of 0.4 nM. For the same molecule, the half-maximal inhibitory concentration (IC50) in experiment [2] is 1120 nM.

B2: anti-human IL-2 antibody 602 (MAB602), recombinant mouse IgG2a kappa (antibody, V domains shown)
VH: EVQLQESGPGLVAPSQSLSITCTVSGFSLTNYDISWIRQPPGKGLEWLGVIWTGGGTNYNSGFMSRLSITKDNSKSQVFLKMNSLQTDDTAIYYCVRQGRTPYWGQGTLVTVSA
VL: DIQVTQSPSSLSVSLGDRVTITCKASKDIYNRLAWYQQKPGNAPRLLISGATSLETGVPSRFSGSGSGKDYTLTITSLQTEDVATYYCQQFWGTPYTFGGGTKLEIK
As to B2, the Kd in experiment [3], in experiment [4] and in experiment [5] was above 2000 nM throughout.

A word on the EC50: it is the concentration giving half of the maximal effect. The low end stands for a more potent agent, the high end for a less potent agent. Broadly, the IC50 is the concentration that gives 50% inhibition. As usually defined, the Kd is the constant that tells how readily two partners part at equilibrium. Low readings indicate a tighter complex, high ones a looser complex.
